The record followed here is the RNAGym collection of RNA variant scans (doi:10.7554/elife.90254).

First the molecules themselves.
B1: OR4K15 (parent)
chain: GUUAACGGUCAUAGGCCAUGGAAACUAGGAGCACCAUUUCGCUGCCAGUGAAGAAAUGAACAAAGAAAAUCUGGGCCAGGCAGGCAUCAAAAGAAAUAGUCUUGCGCUCAACCAGAAAGUCUGUAAUCAUUUUAAGGGUA

In the data set the parent is B1. Briefly: self-cleavage, relative activity (ratio to wild type); higher = more cleavage; in vitro, sequencing; the parent is a self-cleaving ribozyme.
As for A68U G106A, the self-cleavage was 0.

As to C45G U131C, the self-cleavage came to 0.41.

On to A24G U133A, for which the self-cleavage worked out at 1.18. For A116U U120C the value was 0.15; for A66G U131A, 1.7. As for U38C A98G, the self-cleavage is 0.96. For A33C A47G, the self-cleavage was determined as 1.05. In the case of C61U A91G, the self-cleavage was found to be 0.87. For C6U U132C the value was 0.63; for U39C U131C, 1.05. For U3A A36G the value was 0.85.

Take A11G A126U: the self-cleavage is 1.17. For the variant C40G A134G, the self-cleavage is 0.82. For A118G A140U the value was 1.28; for U120C A129G, 0.63. As to U102A G138A, the self-cleavage was found to be 0.55.

With C32U A86G, the self-cleavage turned out to be 1.82. For A36U A54C the value was 1.73. The result for A23U U26C reads 1.23; that for A78G A118G, 0.29; that for A67C A110G, 0.37. Take C17G A54G: the self-cleavage was 0.86. As for A22G A94G, the self-cleavage is 0.92.

A11G C112A: the self-cleavage turned out to be 0.02. The result for A78G U139A reads 0.23; that for A82U A111U, 0.04; that for A51G U87G, 0.43. On to U57C A64G, for which the self-cleavage turned out to be 0.81. The result for U38C U133A reads 1.64; that for U108C C128U, 0.04. For A13U A66U the value was 1.15; for U39A A69U, 0.83. The result for U39A A69G reads 1.5. Turning to A4G A90G, the self-cleavage was found to be 1.11.

On to A69G A94G, for which the self-cleavage worked out at 1.36.

Consider G8A U102C, for which the self-cleavage amounted to 2.44.

On to U3C G28U, for which the self-cleavage stood at 2.64. Take U43A A126G: the self-cleavage was 1.25. As for U72C U127A, the self-cleavage was determined as 0.19. For U19A U26C the value was 2.12; for A24C U132C, 1.46; for A22G U38C, 1.62. For A51G A62G the value was 0.33; for A52U U133C, 1.72; for A27G A64G, 1.27. In the case of G48U U102C, the self-cleavage came out at 1.31. The result for U38C U97C reads 1.57.

Turning to A91U A126U, the self-cleavage was determined as 1.56.

A60G C121U: the self-cleavage amounted to 1.48. In the case of C17U A117G, the self-cleavage was found to be 1.84. Turning to A18U A66G, the self-cleavage came out at 1.5. In the case of A62U A92G, the self-cleavage turned out to be 1.34. Consider A11G U38C, for which the self-cleavage is 0.65. For A92G, the self-cleavage amounted to 1.15. The result for U2A A60C reads 1.97; that for A59U A126G, 1.26; that for U2A U131C, 0.69. A91G A114G: the self-cleavage was 0.25.

Turning to G14C A59G, the self-cleavage is 1.46. Regarding A69U A90G, the self-cleavage was found to be 1.31. For A110U U130C the value was 1.06; for A47U U120A, 1.19; for A23G A111U, 0.23. For A51G G136A the value was 2; for G15C A68C, 2.44. As to G28A A86U, the self-cleavage is 1.88. For U39C A135G the value was 1.82; for A56G G83U, 0.73; for A13U U87A, 1.61. U70C U100C: the self-cleavage was determined as 2. As for U72G U102A, the self-cleavage amounted to 0.11. For U12C U87A the value was 0.96; for A62U A86G, 1.88; for G7U A114G, 0.16. The result for G14U A94G reads 1.84; that for U87C U132C, 0.92.

U39C U49A: the self-cleavage is 1.41. For A24G U49G, the self-cleavage is 0.9. For G14U A116U the value was 0.11.

For A24G A98C, the self-cleavage is 1.76. As to U87C U131C, the self-cleavage worked out at 1.07.

On to U19C A96C, for which the self-cleavage is 0.69. The result for U19C A96G reads 1.8; that for U43C U122C, 0.81; that for C10U U39C, 1.02. As for C76U, the self-cleavage worked out at 0.05.

Regarding A11U A54U, the self-cleavage stood at 2.18.

G8C: the self-cleavage is 1.16. Turning to U108A A129U, the self-cleavage is 0.03. On to A47U U49A, for which the self-cleavage was 0.97.

Regarding A116G U124C, the self-cleavage is 0.36.

In the case of U108G U122C, the self-cleavage worked out at 0.02. Consider U70C U97C, for which the self-cleavage is 0.68.

Regarding U2C U100C, the self-cleavage was found to be 1.61. For C112G A135U the value was 0.01; for A110C A116G, 0.26; for A56G U97A, 2.36. The result for C25G A59G reads 0.57; that for U39C A55U, 2.15; that for A18G C46U, 1.34. For U2C A33U the value was 1.24.

In the case of U3C A125U, the self-cleavage worked out at 0.83. For C25G A118G the value was 0.35; for A4U U57A, 1.53.

For U19C A135G, the self-cleavage came out at 2.08.

As for A24U A135U, the self-cleavage amounted to 0.83.

As for G65A A118G, the self-cleavage came to 1.57. Turning to U19C G75A, the self-cleavage came to 0.23. On to A22U G123U, for which the self-cleavage is 1.96. U19C A90G: the self-cleavage was 1.39. For A18G A86G the value was 1.99; for A82U U127A, 0.04. The result for C34U C105U reads 0.4. The result for A82U U108C reads 0.01; that for A11G A36G, 0.8; that for A11C U49C, 1.57. Consider A33U A96G, for which the self-cleavage is 0.16.

Take U9A A23U: the self-cleavage came out at 1.59.

Take A13G G53A: the self-cleavage is 1.11. In the case of U127C A140U, the self-cleavage amounted to 1.33. For A4G G106A the value was 0.02.

In the case of G8A A18G, the self-cleavage was 0.78. On to C6A A89C, for which the self-cleavage stood at 1.1. As to A126U U139A, the self-cleavage is 1.99. U19C U37C: the self-cleavage came out at 1.5. On to G20U U70C, for which the self-cleavage is 0.6.

C81U A111U: the self-cleavage is 0.05. The result for A60G U120C reads 0.82.

For the variant A47G U102G, the self-cleavage stood at 0.41. The result for A69G C85U reads 0.65; that for A67G A114G, 0.49. In the case of A60U U120C, the self-cleavage was 0.7.

As to A18G C109A, the self-cleavage was 0.34.

Consider A11G A68U, for which the self-cleavage is 1.23. For A11G G41A, the self-cleavage stood at 0.82. The result for A67G U72C reads 0.32; that for A56G A62U, 2.29; that for A33G U132C, 0.83. The result for A18G A36U reads 1.39; that for A96G U133C, 1.82; that for U87A A90G, 1.29.

With A82U U133C, the self-cleavage is 0.07. Turning to A18G A33G, the self-cleavage amounted to 0.97. As to A92G U133C, the self-cleavage worked out at 1.59. As to C34U A110G, the self-cleavage worked out at 0.19. Take A110C A135U: the self-cleavage stood at 0.06. For the variant G28A C128A, the self-cleavage was determined as 1.34.

Regarding A52G A140U, the self-cleavage came out at 1.15. For G8A U70C the value was 1.22; for U38C A47G, 0.74; for C35G A59G, 1.58. Consider U26C U103A, for which the self-cleavage stood at 0.24. The result for U43C U97G reads 1.6; that for A11U A96G, 1.31; that for A51G A114G, 1.1. For U38A A66G the value was 1.31; for A47G U127C, 0.59; for A36G A90G, 1.54. The result for C35A A116G reads 0.83. As for C6A, the self-cleavage worked out at 1.28. With A36C A111G, the self-cleavage came to 0.02. For A55U A92G the value was 1.36; for C45U U108A, 0.01. Consider A68G U108A, for which the self-cleavage was 0.04.

Consider G73A A94G, for which the self-cleavage was 0.19. For the variant A59G U133C, the self-cleavage was 1.79. As for A62G C101U, the self-cleavage was found to be 0.41.
